These results are taken from PMC8682993 (Science Advances, 2021).

Experiment [1] has as its target T1, full-length yeast Hsp90 (Hsp82) (yeast, UniProt P02829 1-709). The experiment can be described thus: AUC.
Experiment [2] deals with T1, full-length yeast Hsp90 (Hsp82). The experiment can be described thus: fluorescence polarisation. (In general: Fluorescence polarisation rises when a labelled molecule tumbles more slowly, as on binding a larger partner.)

Where a chain is given by its changes, count along the chain named. In names and notes the source's numbering stands. Several values for one entry are separate records, joined by “and”; a condition that tells them apart may be missing. Equal entries are not always repeated.

T1 sequence (P02829 whole entry): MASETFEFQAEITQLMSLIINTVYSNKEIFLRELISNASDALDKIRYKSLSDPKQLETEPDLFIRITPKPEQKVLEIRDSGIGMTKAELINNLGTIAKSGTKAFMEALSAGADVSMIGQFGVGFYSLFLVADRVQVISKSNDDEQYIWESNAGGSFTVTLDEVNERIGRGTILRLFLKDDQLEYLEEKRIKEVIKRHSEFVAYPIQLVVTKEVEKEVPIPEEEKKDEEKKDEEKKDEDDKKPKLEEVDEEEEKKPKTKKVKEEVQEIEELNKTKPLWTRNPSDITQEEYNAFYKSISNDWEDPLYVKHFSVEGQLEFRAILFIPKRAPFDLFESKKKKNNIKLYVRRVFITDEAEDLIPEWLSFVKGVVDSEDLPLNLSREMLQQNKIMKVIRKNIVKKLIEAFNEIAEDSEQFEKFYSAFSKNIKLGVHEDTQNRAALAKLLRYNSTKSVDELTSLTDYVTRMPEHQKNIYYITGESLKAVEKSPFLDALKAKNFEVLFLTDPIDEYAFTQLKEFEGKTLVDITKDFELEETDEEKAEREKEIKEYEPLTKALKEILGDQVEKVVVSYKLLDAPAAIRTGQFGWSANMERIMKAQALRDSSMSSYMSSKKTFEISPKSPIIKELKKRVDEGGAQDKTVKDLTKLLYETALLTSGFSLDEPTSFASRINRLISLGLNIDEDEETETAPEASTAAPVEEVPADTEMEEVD

B1: MR-LBD (C805S/A841C) (domain or fragment)
chain: APTKEPSVNSALVPQLTSITHALTPSPAMILENIEPETVYAGYDNSKPDTAESLLSTLNRLAAKQMIQVVKWAKVLPGFKNLPLEDQITLIQYSWMSLSSFALSWRSYKHTNSQLLYFAPDLVFNEEKMHQSCMYELCQGMRQISLQFVRLQLTFEEYSIMKVLLLLSTVPKDGLKSQAAFEEMRTNYIKELRKMVTKCPNSSGQSWQRFYQLTKLLDSMHDLVSDLLEFCFYTFRESQALKVEFPAMLVEIITDQLPKVESGNAKPLYFHRK
As to B1, in experiment [1], the binding result is “binds”.

B2: rat MR-LBD (amino acids 709 to 981; C805S) (domain or fragment)
chain: B1 chain with C133A
modifications: ATTO 488 maleimide, randomly on cysteine residues (anisotropy and AUC)
The term Kd denotes the equilibrium constant for the complex coming apart. Low readings indicate a tighter complex, high ones a looser complex. With B2, the Kd in experiment [2] was 5.7 µM and 5.3 µM and 2.2 µM and 1.9 µM.

B3: p53-DBD (C124S/C229S/C277S) (domain or fragment)
chain: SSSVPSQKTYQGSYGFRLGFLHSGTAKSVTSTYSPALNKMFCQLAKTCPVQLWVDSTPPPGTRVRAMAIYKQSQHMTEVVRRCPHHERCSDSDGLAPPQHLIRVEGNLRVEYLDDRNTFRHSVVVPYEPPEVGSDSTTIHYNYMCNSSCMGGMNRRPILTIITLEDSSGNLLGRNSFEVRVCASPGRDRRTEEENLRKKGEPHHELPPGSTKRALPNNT
As for B3, the binding result in experiment [1] is listed as “binds”.
